# T1: APBA2_1, Q99767
# T1 sequence (Q99767 563-664, limits assumed, looked up): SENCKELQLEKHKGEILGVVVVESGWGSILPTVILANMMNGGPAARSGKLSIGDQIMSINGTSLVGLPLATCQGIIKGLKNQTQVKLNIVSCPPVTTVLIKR
# T2: DLG3_1, Q92796
# T2 sequence (Q92796 125-227, limits assumed, looked up): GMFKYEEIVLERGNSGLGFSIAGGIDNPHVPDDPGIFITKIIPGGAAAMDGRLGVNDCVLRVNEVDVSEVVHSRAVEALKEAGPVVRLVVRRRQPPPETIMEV
# T3: DLG3_2, Q92796
# T3 sequence (Q92796 221-321, limits assumed, looked up): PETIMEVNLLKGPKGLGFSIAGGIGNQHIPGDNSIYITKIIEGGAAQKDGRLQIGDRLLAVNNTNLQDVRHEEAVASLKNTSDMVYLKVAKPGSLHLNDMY
# T4: MPDZ_10, O75970
# T4 sequence (O75970 1624-1722, limits assumed, looked up): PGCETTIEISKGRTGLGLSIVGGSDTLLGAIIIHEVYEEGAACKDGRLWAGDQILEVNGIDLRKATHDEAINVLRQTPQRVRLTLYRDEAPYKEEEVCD
# T5: NHERF3_1, Q5T2W1
# T5 sequence (Q5T2W1 4-100, limits assumed, looked up): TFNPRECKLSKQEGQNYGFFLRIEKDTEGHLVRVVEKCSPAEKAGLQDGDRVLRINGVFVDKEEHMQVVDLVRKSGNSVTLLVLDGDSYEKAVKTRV
# T6: RHPN1, Q8TCX5
# T6 sequence (Q8TCX5 508-602, limits assumed, looked up): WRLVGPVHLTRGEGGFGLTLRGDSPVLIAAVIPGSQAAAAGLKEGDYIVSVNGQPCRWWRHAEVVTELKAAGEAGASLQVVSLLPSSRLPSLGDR
# T7: SHANK1, Q9Y566
# T7 sequence (Q9Y566 658-767, limits assumed, looked up): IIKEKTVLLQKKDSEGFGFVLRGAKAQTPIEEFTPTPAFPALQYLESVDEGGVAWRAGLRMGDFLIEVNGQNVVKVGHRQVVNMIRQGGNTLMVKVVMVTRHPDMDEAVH
# T8: SNTA1, Q13424
# T8 sequence (Q13424 82-180, limits assumed, looked up): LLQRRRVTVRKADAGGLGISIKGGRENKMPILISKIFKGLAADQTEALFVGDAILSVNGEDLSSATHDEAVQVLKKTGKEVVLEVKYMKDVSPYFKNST
# T9: SNTG1, Q9NSN8
# T9 sequence (Q9NSN8 52-150, limits assumed, looked up): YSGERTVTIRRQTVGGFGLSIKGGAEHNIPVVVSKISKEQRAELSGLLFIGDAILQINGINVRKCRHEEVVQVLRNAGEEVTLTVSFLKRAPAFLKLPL
# T10: SYNJ2BP, P57105
# T10 sequence (P57105 8-110, limits assumed, looked up): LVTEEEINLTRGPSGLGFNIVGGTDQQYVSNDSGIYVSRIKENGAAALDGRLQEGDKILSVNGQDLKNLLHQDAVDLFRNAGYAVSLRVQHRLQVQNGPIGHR
# T11: TJP3_3, O95049
# T11 sequence (O95049 375-456, limits assumed, looked up): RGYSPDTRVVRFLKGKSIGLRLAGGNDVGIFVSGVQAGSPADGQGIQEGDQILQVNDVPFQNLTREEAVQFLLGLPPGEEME
# T12: TX1BP3, O14907
# T12 sequence (O14907 10-122, limits assumed, looked up): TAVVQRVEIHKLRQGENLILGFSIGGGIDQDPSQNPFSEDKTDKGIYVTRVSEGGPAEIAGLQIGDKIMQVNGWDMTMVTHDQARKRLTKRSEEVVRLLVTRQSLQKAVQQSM
# Key:
# Assay in all cases: holdup assay
# Set-up in all cases: key: below the threshold = too weak to quantify, mostly under pKd 3.1 to 4
# Details in all cases: plain residues with an end cap or a label only (N-terminal biotin on a linker: ado-ado)
# APBA2_1, Q99767 = biological target: T1, APBA2_1, Q99767
# ARHGEF12, Q9NZN5-2 = biological target: ARHGEF12, Q9NZN5-2
# CASK, O14936 = biological target: CASK, O14936
# DLG3_1, Q92796 = biological target: T2, DLG3_1, Q92796
# DLG3_2, Q92796 = biological target: T3, DLG3_2, Q92796
# DLG5_1, Q8TDM6 = biological target: DLG5_1, Q8TDM6
# FRMPD3, Q5JV73 = biological target: FRMPD3, Q5JV73
# GOPC, Q9HD26 = biological target: GOPC, Q9HD26
# GRASP, Q7Z6J2 = biological target: GRASP, Q7Z6J2
# GRID2IP_1, A4D2P6 = biological target: GRID2IP_1, A4D2P6
# IL16_4, Q14005 = biological target: IL16_4, Q14005
# LIMK2, P53671 = biological target: LIMK2, P53671
# MAGI1_2, Q96QZ7 = biological target: MAGI1_2, Q96QZ7
# MAST2, Q6P0Q8 = biological target: MAST2, Q6P0Q8
# MPDZ_10, O75970 = biological target: T4, MPDZ_10, O75970
# NHERF3_1, Q5T2W1 = biological target: T5, NHERF3_1, Q5T2W1
# NHERF4_1, Q86UT5-2 = biological target: NHERF4_1, Q86UT5-2
# PDZRN4_1, Q6ZMN7 = biological target: PDZRN4_1, Q6ZMN7
# RHPN1, Q8TCX5 = biological target: T6, RHPN1, Q8TCX5
# SCRIB_1, Q14160 = biological target: SCRIB_1, Q14160
# SHANK1, Q9Y566 = biological target: T7, SHANK1, Q9Y566
# SNTA1, Q13424 = biological target: T8, SNTA1, Q13424
# SNTG1, Q9NSN8 = biological target: T9, SNTG1, Q9NSN8
# SYNJ2BP, P57105 = biological target: T10, SYNJ2BP, P57105
# TJP3_3, O95049 = biological target: T11, TJP3_3, O95049
# TX1BP3, O14907 = biological target: T12, TX1BP3, O14907
# Sequence of LIMK2, P53671 (P53671 143-248): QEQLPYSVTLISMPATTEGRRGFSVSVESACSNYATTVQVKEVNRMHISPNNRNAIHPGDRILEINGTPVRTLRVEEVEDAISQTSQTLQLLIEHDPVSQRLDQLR
# Sequence of MAGI1_2, Q96QZ7 (Q96QZ7 456-580): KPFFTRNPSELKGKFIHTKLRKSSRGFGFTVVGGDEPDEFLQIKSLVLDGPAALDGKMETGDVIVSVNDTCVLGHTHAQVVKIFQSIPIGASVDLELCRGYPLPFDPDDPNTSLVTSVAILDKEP
# Sequence of PDZRN4_1, Q6ZMN7 (Q6ZMN7 213-318): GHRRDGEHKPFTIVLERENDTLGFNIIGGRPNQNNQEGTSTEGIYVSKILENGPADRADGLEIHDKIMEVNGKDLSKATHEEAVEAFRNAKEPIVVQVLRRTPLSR
# Sequence of CASK, O14936 (O14936 487-570): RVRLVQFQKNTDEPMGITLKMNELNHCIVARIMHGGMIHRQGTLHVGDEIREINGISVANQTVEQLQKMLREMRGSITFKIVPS
# Sequence of GRID2IP_1, A4D2P6 (A4D2P6 1-87): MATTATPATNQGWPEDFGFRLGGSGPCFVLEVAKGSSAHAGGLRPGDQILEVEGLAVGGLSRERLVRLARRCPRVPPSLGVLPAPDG
# Sequence of NHERF4_1, Q86UT5-2 (Q86UT5 other isoform, or with tags, fused parts or gaps): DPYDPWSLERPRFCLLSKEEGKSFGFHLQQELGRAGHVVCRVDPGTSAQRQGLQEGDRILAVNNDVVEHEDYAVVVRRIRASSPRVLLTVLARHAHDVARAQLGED
# Sequence of ARHGEF12, Q9NZN5-2 (Q9NZN5 other isoform, or with tags, fused parts or gaps): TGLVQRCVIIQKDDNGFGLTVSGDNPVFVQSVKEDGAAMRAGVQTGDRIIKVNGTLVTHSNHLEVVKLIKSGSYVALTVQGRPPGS
# Sequence of FRMPD3, Q5JV73 (Q5JV73 12-100): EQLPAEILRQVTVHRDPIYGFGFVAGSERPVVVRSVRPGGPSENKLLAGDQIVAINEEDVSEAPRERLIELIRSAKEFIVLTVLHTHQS
# Sequence of GRASP, Q7Z6J2 (Q7Z6J2 96-193): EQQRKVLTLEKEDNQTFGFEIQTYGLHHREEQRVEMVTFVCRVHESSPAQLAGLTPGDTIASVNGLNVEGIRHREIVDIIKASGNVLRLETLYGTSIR
# Sequence of IL16_4, Q14005 (Q14005 1229-1329): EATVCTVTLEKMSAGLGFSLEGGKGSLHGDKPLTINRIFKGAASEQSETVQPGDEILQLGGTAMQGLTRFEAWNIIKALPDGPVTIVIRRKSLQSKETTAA
# Sequence of SCRIB_1, Q14160 (Q14160 718-814): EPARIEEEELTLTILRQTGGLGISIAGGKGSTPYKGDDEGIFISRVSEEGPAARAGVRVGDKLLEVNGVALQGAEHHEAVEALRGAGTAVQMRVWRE
# Sequence of DLG5_1, Q8TDM6 (Q8TDM6 617-713): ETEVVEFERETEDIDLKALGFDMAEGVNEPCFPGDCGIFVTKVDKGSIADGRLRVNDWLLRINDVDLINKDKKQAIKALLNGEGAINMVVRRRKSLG
# Sequence of MAST2, Q6P0Q8 (Q6P0Q8 1099-1202): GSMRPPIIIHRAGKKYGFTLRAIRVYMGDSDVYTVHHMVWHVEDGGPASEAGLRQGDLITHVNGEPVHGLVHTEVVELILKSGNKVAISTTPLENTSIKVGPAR
Binder,"pKd (APBA2_1, Q99767)","pKd (ARHGEF12, Q9NZN5-2)","pKd (CASK, O14936)","pKd (DLG3_1, Q92796)","pKd (DLG3_2, Q92796)","pKd (DLG5_1, Q8TDM6)","pKd (FRMPD3, Q5JV73)","pKd (GOPC, Q9HD26)","pKd (GRASP, Q7Z6J2)","pKd (GRID2IP_1, A4D2P6)","pKd (IL16_4, Q14005)","pKd (LIMK2, P53671)","pKd (MAGI1_2, Q96QZ7)","pKd (MAST2, Q6P0Q8)","pKd (MPDZ_10, O75970)","pKd (NHERF3_1, Q5T2W1)","pKd (NHERF4_1, Q86UT5-2)","pKd (PDZRN4_1, Q6ZMN7)","pKd (RHPN1, Q8TCX5)","pKd (SCRIB_1, Q14160)",further results
"SRPRPDDLEI [GJA1, P17302]",below the threshold,below the threshold,below the threshold,below the threshold,below the threshold,below the threshold,below the threshold,below the threshold,below the threshold,below the threshold,below the threshold,below the threshold,below the threshold,3.75,below the threshold,below the threshold,below the threshold,below the threshold,below the threshold,below the threshold,"pKd (SHANK1, Q9Y566): below the threshold; pKd (SNTA1, Q13424): below the threshold; pKd (SNTG1, Q9NSN8): below the threshold; pKd (SYNJ2BP, P57105): below the threshold; pKd (TJP3_3, O95049): below the threshold; pKd (TX1BP3, O14907): below the threshold"
"GCQGETEDVL [PTH2R, P49190]",below the threshold,below the threshold,below the threshold,below the threshold,below the threshold,below the threshold,below the threshold,below the threshold,3.62,below the threshold,below the threshold,below the threshold,below the threshold,4.46,below the threshold,3.98,3.85,below the threshold,below the threshold,below the threshold,"pKd (SHANK1, Q9Y566): below the threshold; pKd (SNTA1, Q13424): 3.9; pKd (SNTG1, Q9NSN8): below the threshold; pKd (SYNJ2BP, P57105): below the threshold; pKd (TJP3_3, O95049): below the threshold; pKd (TX1BP3, O14907): below the threshold"
"PMESGICTIV [TTC24, A2A3L6]",below the threshold,4.47,below the threshold,4.18,4.89,below the threshold,below the threshold,4.4,4.65,below the threshold,3.67,below the threshold,3.7,5.23,3.76,4.02,4.2,below the threshold,4.85,3.92,"pKd (SHANK1, Q9Y566): 4.04; pKd (SNTA1, Q13424): 4.61; pKd (SNTG1, Q9NSN8): 4.06; pKd (SYNJ2BP, P57105): 3.79; pKd (TJP3_3, O95049): below the threshold; pKd (TX1BP3, O14907): below the threshold"
"NVYGTESVKI [GRIA3, P42263]",below the threshold,below the threshold,below the threshold,below the threshold,below the threshold,below the threshold,below the threshold,below the threshold,below the threshold,below the threshold,below the threshold,below the threshold,below the threshold,3.81,below the threshold,below the threshold,3.57,below the threshold,below the threshold,below the threshold,"pKd (SHANK1, Q9Y566): below the threshold; pKd (SNTA1, Q13424): below the threshold; pKd (SNTG1, Q9NSN8): below the threshold; pKd (SYNJ2BP, P57105): below the threshold; pKd (TJP3_3, O95049): below the threshold; pKd (TX1BP3, O14907): below the threshold"
"RALRASESGI [ADGRE5, P48960]",below the threshold,below the threshold,below the threshold,below the threshold,below the threshold,below the threshold,below the threshold,below the threshold,below the threshold,below the threshold,below the threshold,below the threshold,below the threshold,3.82,below the threshold,below the threshold,below the threshold,below the threshold,below the threshold,below the threshold,"pKd (SHANK1, Q9Y566): below the threshold; pKd (SNTA1, Q13424): below the threshold; pKd (SNTG1, Q9NSN8): below the threshold; pKd (SYNJ2BP, P57105): 3.79; pKd (TJP3_3, O95049): below the threshold; pKd (TX1BP3, O14907): below the threshold"

# — article PMC9482650, “Quantitative fragmentomics allow affinity mapping of interactomes” (Nature Communications, 2022)
